Results: publication PMC2987821

Biological target: Gp41-HR1 (HIV-1)
Assay: SPR

B1: D5 IgG (antibody, V domains shown)
VH: QVQLVQSGAEVRKPGASVKVSCKASGDTFSSYAISWVRQAPGQGLEWMGGIIPIFGTANYAQAFQGRVTITANESTSTAYMELSSLRSEDTAIYYCARDNPTLLGSDYWGAGTLVTVSS
VL: DIQMTQSPSTLSASIGDRVTITCRASEGIYHWLAWYQQKPGKAPKLLIYKASSLASGAPSRFSGSGSGTDFTLTISSLQPDDFATYYCQQYSNYPLTFGGGTKLEIK
- Kd: 3.1 nM
- koff: 0.00103 s⁻¹
- kon: 335000 M⁻¹ s⁻¹
